The source of these data is patent US9670515B2, “Methods for production of xylosylxylitol oligomers” (The Regents of the University of California, priority 2014, dated 2017).

“Also recorded” adds a separate entry of the source.

One data set has as its system CDT-2. In words: Yeast cell-based xylodextrin uptake assay. More on the design: species or system Neurospora crassa. The following applies: starting concentration 100 μM, 30 minutes. As to the method: (§1) S. cerevisiae was grown in an optimized minimum medium (oMM) lacking uracil into late log phase. The oMM contained 1.7 g/L YNB (Sigma, Y1251), 2-fold appropriate CSM dropout mixture, 10 g/L (NH4)2SO4, 1 g/L MgSO4.7H2O, 6 g/L KH2PO4, 100 mg/L adenine hemisulfate, 10 mg/L inositol, 100 mg/L glutamic acid, 20 mg/L lysine, 375 mg/L serine and 100 mM 4-morpholineethanesulfonic acid (MES), pH 6.0 (Lin et al., submitted). Cells were then harvested and washed three times with assay buffer (5 mM MES, 100 mM NaCl, pH 6.0) and resuspended to a final OD600 of 40. Substrate stocks were prepared in the same assay buffer at a concentration of 200 μM. Transport assays were initiated by mixing equal volumes of the cell suspension and the substrate stock. Reactions were incubated at 30° C. with continuous shaking for 30 minutes. Samples were centrifuged at 14,000 rpm at 4° C. for 5 minutes to remove yeast cells. 400 μL of each sample supernatant was transferred to an HPLC vial containing 100 μL of 0.5 M NaOH, and the concentration of the remaining substrate was measured by HPAEC as described below.
as §1, with “(Lin et al. 2014). Cells were” for “(Lin et al., submitted). Cells were”, “30 minutes. […] 400 μL” for “30 minutes. Samples were centrifuged at 14,000 rpm at 4° C. for 5 minutes to remove yeast cells. 400 μL”, “100 μL 0.5 M” for “100 μL of 0.5 M”

Data set [1] can be described thus: Activity of bacterial GH43-7 enzymes on xylobiose or xylosyl-xylitol. Type of data set: biochemical. The following applies: purified enzyme; for β-xylosidase activity: xylobiose (X2) substrate; for xylosyl-xylitol hydrolase activity: xylosyl-xylitol (xlt2) substrate. As for the experimental part:
Experiments were also conducted to further explore potential xylosyl-xylitol hydrolase activity of other β-xylosidases. […] To see if these proteins actually have xylosyl-xylitol hydrolase activity, purified B. subtilis GH43-7 and purified E. coli GH43-7 were incubated with xylobiose (X2) or xylosyl-xylitol (xlt2) and their activity on these substrates was analyzed. […] In summary, two GH43 enzymes from bacteria Bacillus subtilis (AAB41091.1) and Escherichia coli (WP_000406872.1) were tested and confirmed to both cleave xylosyl-xylitol.
S. cerevisiae strains transformed with pRS423_GH43-2, pRS423_GH43-7, or pRS313_NcXR were grown in oMM lacking histidine with 2% glucose until late log phase before harvesting by centrifugation. E. coli strains BL21DE3 transformed with pET302_BsGH43-7 or pET302_EcGH43-7 were grown in TB medium, induced with 0.2 mM IPTG at OD600 of 0.8, and harvested by centrifugation 12 hours after induction. Yeast or E. coli cell pellets were resuspended in a buffer containing 50 mM Tris-HCl, 100 mM NaCl, 0.5 mM DTT, pH 7.4 and protease inhibitor cocktail (Pierce). Cells were lysed with an Avestin homogenizer, and the clarified supernatant was loaded onto a HisTrap column (GE Healthcare). His-tagged enzymes were purified with an imidazole gradient, buffer-exchanged into 20 mM Tris-HCl, 100 mM NaCl, pH 7.4, and concentrated to 5 mg/mL.

Data set [2] in a line: β-xylosidase assay of GH43-2 and GH43-7 with xylosyl-xylitol and xylobiose. Type of data set: biochemical, Neurospora crassa. The following applies: purified enzyme. As for the experimental part:
For the β-xylosidase assay of GH43-2 with xylodextrins, 0.5 μM of purified enzyme was incubated with 0.1% in-house prepared xylodextrin or 1 mM xylobiose (Megazyme) in 1×PBS at 30° C. Reactions were sampled at 30 min and quenched by adding 5 volumes of 0.1 mM NaOH. The products were analyzed by HPAEC as described below. For pH profiling, acetate buffer at pH 4.0, 4.5, 5.0, 5.5, 6.0, and phosphate buffer at 6.5, 7.0, 7.5, 8 were added at a concentration of 0.1 M. For the β-xylosidase assay of GH43-2 and GH43-7 with xylosyl-xylitol, 10 μM of purified enzyme was incubated with 4.5 mM xylosyl-xylitol and 0.5 mM xylobiose in 20 mM MES buffer, pH=7.0, and 1 mM CaCl2 at 30° C. Reactions were sampled at 3 hours and quenched by heating at 99° C. for 10 min. The products were analyzed by ion-exclusion HPLC as described below.
For the β-xylosidase assay of GH43-2 with xylodextrins, 0.5 μM of purified enzyme was incubated with 0.1% in-house prepared xylodextrin or 1 mM xylobiose (Megazyme) in 1×PBS at 30° C. Reactions were sampled at 30 min and quenched by adding 5 volumes of 0.1 M NaOH. The products were analyzed by HPAEC as described below. […] The products were analyzed by ion-exclusion HPLC as described below.

A short description of data set [3]: Xylose reductase assay of NcXR with xylodextrin. The conditions noted are these: in vitro, xylodextrins with degrees of polymerization 2 to 4; products up to xlt3. Type of data set: biochemical, Neurospora crassa. As to the method:
For the xylose reductase assays of S. stipitis XR and N. crassa XR, 1 μM of purified enzyme was incubated with 0.06% xylodextrin and 2 mM NADPH in 1×PBS at 30° C. Reactions were sampled at 30 min and quenched by heating at 99° C. for 10 min. The products were analyzed by LC-QToF as described below.
For the xylose reductase assays of NcXR, 1 μM of purified enzyme was incubated with 0.06% xylodextrin and 2 mM NADPH in 1×PBS at 30° C. Reactions were sampled at 30 min and quenched by heating at 99° C. for 10 min. The products were analyzed by LC-QToF as described below.

Turning to `OC1OC[C@@H](O[C@@H]2OC[C@@H](O[C@@H]3OC[C@@H](O)[C@H](O)[C@H]3O)[C@H](O)[C@H]2O)[C@H](O)[C@H]1O` (stereo partly shown) [xylotriose], in the data set with CDT-2, the “import into S. cerevisiae strains expressing cdt-2” value was “able to import”.

Consider `OC1OC[C@@H](O[C@@H]2OC[C@@H](O)[C@H](O)[C@H]2O)[C@H](O)[C@H]1O` (stereo partly shown) [xylobiose], for which, in the data set on CDT-2, the “import into S. cerevisiae strains expressing cdt-2” value was “able to import”.

Take `OC1OC[C@@H](O[C@@H]2OC[C@@H](O[C@@H]3OC[C@@H](O[C@@H]4OC[C@@H](O)[C@H](O)[C@H]4O)[C@H](O)[C@H]3O)[C@H](O)[C@H]2O)[C@H](O)[C@H]1O` (stereo partly shown) [xylotetraose]: the “import into S. cerevisiae strains expressing cdt-2” value with CDT-2 is reported as “able to import”.

B1: B. subtilis GH43-7: GH43 enzyme from bacteria Bacillus subtilis, homologous to GH43-7 (protein, listed as Bacillus subtilis)
chain: MKITNPVLKGFNPDPSICRAGEDYYIAVSTFEWFPGVQIHHSKDLVNWHLVAHPLQRVSQLDMKGNPNSGGVWAPCLSYSDGKFWLIYTDVKVVDGAWKDCHNYLVTCETINGDWSEPIKLNSSGFDASLFHDTDGKKYLLNMLWDHRIDRHSFGGIVIQEYSDKEQKLIGKPKVIFEGTDRKLTEAPHLYHIGNYYYLLTAEGGTRYEHAATIARSANIEGPYEVHPDNPILTSWHDPGNPLQKCGHASIVQTHTDEWYLAHLTGRPIHPDDDSIFQQRGYCPLGRETAIQKLYWKDEWPYVVGGKEGSLEVDAPSIPETIFEATYPEVDEFEDSTLNINFQTLRIPFTNELGSLTQAPNHLRLFGHESLTSTFTQAFVARRWQSLHFEAETAVEFYPENFQQAAGLVNYYNTENWTALQVTHDEELGRILELTICDNFSFSQPLNNKIVIPREVKYVYLRVNIEKDKYYYFYSFNKEDWHKIDIALESKKLSDDYIRGGGFFTGAFVGMQCQDTGGNHIPADFRYFRYKEK
As for B1, in data set [1], the β-xylosidase activity entry is recorded as “exhibited β-xylosidase activity” and the xylosyl-xylitol hydrolase activity result is reported as “exhibited xylosyl-xylitol hydrolase activity”.

B2: GH43-7: second putative intracellular β-xylosidase from N. crassa with xylosyl-xylitol hydrolase activity (protein)
chain: MPLVKNPILPGFNPDPSVLRVGQDYYIATSTFEWYPGVQIHHSTDLANWTLLTRPLNRKSQLDMRGDPDSCGVWAPCLSHDGDKFWLVYTDVKRKDGSFKDAHNFIVWADKIDGEWSDPVYVNSSGFDPSLFHDPDSGKKYFVNMLWDHRRRPLLFAGIAVQEWDAKTKKLVGERKNVYQGTELALAEAPHVYKRNGWYYLLIAEGGTGYEHACTLARSKDIWGPYKTHPEKHVLTSKDHPRAALQRAGHGDIVEIEDGRTYLVHLTGRPTTQLRRCVLGRETAIQECYWKDDWLYVKNGPVPSLWVDLLGERDESKYWEEKRYTFKDGLHKDFQWLRTPETERIFNVKDGKLTLIGREAIGSWFEQALVARRQEHFSYDAETVIDFSPTDERQFAGLTAYYCRYNFFYLTVTAHSDGQRELLIMSSEASWPIGNLNTPYVPYVQIPNEGKVKLALTIRGNQLQFYYAVLDSGDEELKKIGPVFDASIVSDECGGHQQHGSFTGAFVGVAASDLNGLAAEAKFDYLLYKPVKNQQDAYVRDNE
modifications: N. crassa
With B2, the β-xylosidase activity entry in data set [2] (xylobiose substrate) is “weak β-xylosidase activity”. In data set [2] (xylosyl-xylitol substrate), the “hydrolysis of xylosyl-xylitol into xylose and xylitol” value is “rapidly hydrolyzed”.

B3: E. coli GH43-7: GH43 enzyme from bacteria Escherichia coli, homologous to GH43-7 (protein, listed as Escherichia coli)
chain: MEITNPILTGFNPDPSLCRQGEDYYIATSTFEWFPGVRIYHSRDLKNWSLVSTPLDRVSMLDMKGNPDSGGIWAPCLSYADGKFWLLYTDVKIVDSPWKNGRNFLVTAPSIEGPWSEPIPMGNGGFDPSLFHDDDGRKYYIYRPWGPRHHSNPHNTIVLQAFDPQTGTLSPERKTLFTGTPLCYTEGAHLYRHAGWYYLMVAEGGTSYEHAVVVLRSKNIDGPYELHPDVTMMTSWHLPENPLQKSGHGSLLQTHTGEWYMAYLTSRPLRLPGVPLLASGGRGYCPLGRETGIARIEWRDGWPYVEGGKHAQLTVKGPQVAEQPAAVPGNWRDDFDASSLDPELQTLRIPFDDTLGSLTARPGFLRLYGNDSLNSTFTQSTVARRWQHFAFRAETRMEFSPVHFQQSAGLTCYYNSKNWSYCFVDYEEGQGRTIKVIQLDHNVPSWPLHEQPIPVPEHAESVWLRVDVDTLVYRYSYSFDGETWHTVPVTYEAWKLSDDYIGGRGFFTGAFVGLHCEDISGDGCYADFDYFTYEPV
In the case of B3, in data set [1], the β-xylosidase activity result is listed as “exhibited β-xylosidase activity” and the xylosyl-xylitol hydrolase activity entry is on record as “exhibited xylosyl-xylitol hydrolase activity”.

B4: XYR-1: xylose reductase from Neurospora crassa (protein)
chain: MVPAIKLNSGFDMPQVGFGLWKVDGSIASDVVYNAIKAGYRLFDGACDYGNEVECGQGVARAIKEGIVKREELFIVSKLWNTFHDGDRVEPIVRKQLADWGLEYFDLYLIHFPVALEYVDPSVRYPPGWHFDGKSEIRPSKATIQETWTAMESLVEKGLSKSIGVSNFQAQLLYDLLRYAKVRPATLQIEHHPYLVQQNLLNLAKAEGIAVTAYSSFGPASFREFNMEHAQKLQPLLEDPTIKAIGDKYNKDPAQVLLRWATQRGLAIIPKSSREATMKSNLNSLDFDLSEEDIKTISGFDRGIRFNQPTNYFSAENLWIFG
modifications: N. crassa
In the case of B4, in data set [3], the “production of xylosyl-xylitol oligomers from xylodextrin substrates” value is recorded as “able to directly produce xylosyl-xylitol oligomers; also recorded: generated xylosyl-xylitol products”.
